Laboratory results reported in the supplement of paper PMC7125110.
± gives the standard error. This sample holds only a part of the variants without activity.

B1: glmS ribozyme (parent)
chain: AUAAAAGCGCCAGAACUACAGAAAUGUAGUUGACGAGGAGGAGGUUUAUCGAAUUUUCGGCGGAUGCCUCCAAA

Variants of: B1
Assay: self-cleavage kobs at 2500 uM GlcN6P; higher = faster cleavage; RNA array
Settings: with glucosamine-6-phosphate
Procedure, shortened: (§1)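 kcat and KM were obtained from weighted Michaelis–Menten fits across concentrations of kobs values. Those came from one- or two-exponential decay fits to per-tile medians normalised to baseline and to non-cleaving reference variants. The variants were barcoded ribozymes transcribed in situ by E. coli RNA polymerase on sequenced MiSeq chips and tracked through a hybridised Cy3 probe at 37 °C, with 40 μM to 10 mM glucosamine-6-phosphate in HEPES/KCl/Mg(OAc)2 buffer flowed in.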

Variant | self-cleavage kobs at 2500 uM GlcN6P
A12U C50U U65C | < 1e-05 s⁻¹
C8A A53U C71U | < 1e-05 s⁻¹
C8G G35U A52G C61A | < 1e-05 s⁻¹
A12C A15C A39G A64G C70U | < 1e-05 s⁻¹
A12U U54A C58U | 4.04e-05 ± 1.6e-05 s⁻¹
A12U C50G G66C C70A | 5.12e-05 ± 2e-05 s⁻¹
C11G C16U G51A U65A C67G | 8.38e-05 ± 3e-05 s⁻¹
A12G G59C C67U | 4.19e-05 ± 1.9e-05 s⁻¹
G9A C16G A33C G51U U54A C58U | < 1e-05 s⁻¹
G9A A14G U56G | 5.76e-05 ± 2.3e-05 s⁻¹
C8G A42G A52U | < 1e-05 s⁻¹
G9C A15U A42U | < 1e-05 s⁻¹
G9U A12C A33G A53U | < 1e-05 s⁻¹
C8U G9U G63U | < 1e-05 s⁻¹
A12C A36U U46G | < 1e-05 s⁻¹
C11A A12U G35U C50G | 0.000171 ± 4.2e-05 s⁻¹
G7U C10G A12C A42C G62U | < 1e-05 s⁻¹
C10A A12U G37U U45A | < 1e-05 s⁻¹
A12U A15U C50G C70G | 0.000215 ± 5.7e-05 s⁻¹
C8U A12C A15U U30A U54G U55G C70U | < 1e-05 s⁻¹
C11G C34A G37U | < 1e-05 s⁻¹
C10U G43A C50U G51C | < 1e-05 s⁻¹
A12C G38A U49C A53C | < 1e-05 s⁻¹
C11U C16G G32A A42U C70U | < 1e-05 s⁻¹

Variant | self-cleavage kobs at 2500 uM GlcN6P
C10U A36U G41U A42G U54G G59C | < 1e-05 s⁻¹
C10U G13A A52U U69G | 4.08e-05 ± 1.4e-05 s⁻¹
C8G A14G U55G C58U U65G | < 1e-05 s⁻¹
A12G A39G C67A | 0.000177 ± 3.7e-05 s⁻¹
A12G U56C C67U | < 1e-05 s⁻¹
C10U C11A A12G G41C | < 1e-05 s⁻¹
C11A C16U A53U | 5.99e-05 ± 2.5e-05 s⁻¹
C11G A42C G43A C70U | < 1e-05 s⁻¹
G9U G38C U54G G62C | < 1e-05 s⁻¹
G7U C16A U30C A52U G60U C71G | < 1e-05 s⁻¹
A12U A15C G41C C61U G66A | < 1e-05 s⁻¹
C10U U30A U46G | < 1e-05 s⁻¹
C11U U31C G32A A64U | < 1e-05 s⁻¹
C10U G29U A33G A39C U55G C70G | < 1e-05 s⁻¹
C8A G13A U56C | < 1e-05 s⁻¹
C8U C34U G63C | < 1e-05 s⁻¹
C8U U30A U46G | < 1e-05 s⁻¹
C10U G32U G41C U55G | < 1e-05 s⁻¹
C10A G40U U47G U49C U55A | < 1e-05 s⁻¹
G9C G41A C70U | < 1e-05 s⁻¹
C11A U49G | < 1e-05 s⁻¹
C11U U30G C68G | < 1e-05 s⁻¹
G9U G35C A42U | < 1e-05 s⁻¹
G7U G32C C68A | < 1e-05 s⁻¹

Variant | self-cleavage kobs at 2500 uM GlcN6P
C10U G43C C61U C70U | < 1e-05 s⁻¹
C8U C10A A15C | < 1e-05 s⁻¹
G7U U57G G60U | < 1e-05 s⁻¹
C8U A33C C58G | < 1e-05 s⁻¹
C10A G35A A36U | < 1e-05 s⁻¹
C11U G13U U30C G44A | < 1e-05 s⁻¹
C10U A14C G66C | < 1e-05 s⁻¹
A12G C16G C68G | 0.00102 ± 0.0005 s⁻¹
G9C G60A C67U | < 1e-05 s⁻¹
C8U A48U G60C | < 1e-05 s⁻¹
A12C C16U C50U | 3.9e-05 ± 1.5e-05 s⁻¹
G9A G40U G62U A64U | < 1e-05 s⁻¹
C8A G32C C34G A42U C61A | < 1e-05 s⁻¹
G9U C10U C34U A53U G63U | < 1e-05 s⁻¹
C10A G40A U55A | < 1e-05 s⁻¹
A12U C16A A42U G51U | < 1e-05 s⁻¹
C11U C50A G51U C61A | 9.9e-05 ± 3.3e-05 s⁻¹
C11G G35C U45G C67A | < 1e-05 s⁻¹
G9C G66C | < 1e-05 s⁻¹
C8U G37A C50G A64G C71A | 0.000244 ± 6.7e-05 s⁻¹
C11U G35C U54A G60U C71A | < 1e-05 s⁻¹
C8U A36C G51U C68A | < 1e-05 s⁻¹
A12U G41A C68U | 3.9e-05 ± 1.6e-05 s⁻¹
C8U C34G U69G | 8.61e-05 ± 2.2e-05 s⁻¹

Variant | self-cleavage kobs at 2500 uM GlcN6P
G7U G35U G44U | < 1e-05 s⁻¹
C10U C16G C34G A39G | < 1e-05 s⁻¹
C10A G44C A48C | < 1e-05 s⁻¹
C8U G37U | < 1e-05 s⁻¹
A12G U45A C70G | 0.000143 ± 3.9e-05 s⁻¹
C8U A15C C71G | < 1e-05 s⁻¹
C11U G63A U65C | < 1e-05 s⁻¹
G9A G13C C34A G40C C50U C71G | < 1e-05 s⁻¹
A12U G35A A39G U45C C61U | < 1e-05 s⁻¹
C8A G32C G40U U55A | < 1e-05 s⁻¹
C10U A12U G63C C70A C71A | 5.29e-05 ± 1.7e-05 s⁻¹
G13A A14U A53U U54C G60A | < 1e-05 s⁻¹
G13A A15C C50G C70A | 0.000129 ± 2.5e-05 s⁻¹
A12G A39U U47G | 8.38e-05 ± 1.6e-05 s⁻¹
C10G C16G G35A A53U A64C | < 1e-05 s⁻¹
C8U A42C U46A U55A | < 1e-05 s⁻¹
C8U A39U A64U | < 1e-05 s⁻¹
C10A C11A G38C G41A | < 1e-05 s⁻¹
C10A A33U A48U | < 1e-05 s⁻¹
C8G G63U U65C | < 1e-05 s⁻¹
C11G G29C A36G U69G | 0.001 ± 0.00046 s⁻¹
C10U G32A G37A A42U C50A U69G | < 1e-05 s⁻¹
A12G A14U G41A G43A C50U G51A | < 1e-05 s⁻¹
G7U C10U A36U G44U U54A | < 1e-05 s⁻¹

Variant | self-cleavage kobs at 2500 uM GlcN6P
C8A C16U U56A | < 1e-05 s⁻¹
C11U A14G G43A | < 1e-05 s⁻¹
C10A C11U A36C | < 1e-05 s⁻¹
G9A A14G A33C G38U U57A | < 1e-05 s⁻¹
A12C G40U U54A | 0.000324 ± 6.9e-05 s⁻¹
C11A U30G G43C C68G C71U | 0.000269 ± 9.8e-05 s⁻¹
C8G A42C U45C C71G | < 1e-05 s⁻¹
C10U C16A U45C | < 1e-05 s⁻¹
G7U C8U A52G | < 1e-05 s⁻¹
C8U A12C U30A | < 1e-05 s⁻¹
C8U C16U G60A C67A | < 1e-05 s⁻¹
C10G C11A U30C A36C G37U C70A C71U | 8.35e-05 ± 3.8e-05 s⁻¹
C10U A14U G44U C61U | < 1e-05 s⁻¹
C10G U46A U56G | < 1e-05 s⁻¹
C11U U30C A39G A42G | 0.000103 ± 3.7e-05 s⁻¹
A12C G35U A36G U65G | < 1e-05 s⁻¹
G9U G35A A36G G63U | < 1e-05 s⁻¹
C8U A36C U45G A53G G60C C67A | < 1e-05 s⁻¹
C8U G32A A33U G35C G37U A39U G51C G60C | < 1e-05 s⁻¹
C11A U30G A53U | 0.00017 ± 4.1e-05 s⁻¹
C8U C11A G32A U56G | < 1e-05 s⁻¹
G9C C50G U55A U57G C70U | 0.000283 ± 0.0001 s⁻¹
C11U A42G U54G G66A | 0.000265 ± 7.1e-05 s⁻¹
C10G G32C A53C G63U A64G | < 1e-05 s⁻¹

Variant | self-cleavage kobs at 2500 uM GlcN6P
G9U G40A U45G C50A | < 1e-05 s⁻¹
G9U U55C U56G C67U | < 1e-05 s⁻¹
A12G G32C | 2.23e-05 ± 9.3e-06 s⁻¹
C11U U31G A53C | 0.000433 ± 0.0001 s⁻¹
G7U G32C C34U | < 1e-05 s⁻¹
C8U A15U G32U U46C | < 1e-05 s⁻¹
C11U C34U G40C | < 1e-05 s⁻¹
C10U C11A G40A | < 1e-05 s⁻¹
C10G C11U G32A U45C | < 1e-05 s⁻¹
C11U A39G A42G | 0.00125 ± 0.00043 s⁻¹
C11G G29C G37U A52C | < 1e-05 s⁻¹
C8A U30C G62A | < 1e-05 s⁻¹
A12C C58U G60U | < 1e-05 s⁻¹
C11A A33C A36G U46G G51A G62A | < 1e-05 s⁻¹
C10U C67G C68U | 0.000126 ± 4.8e-05 s⁻¹
C11G G37A U49G G60U | < 1e-05 s⁻¹
C10G A42G A48C | < 1e-05 s⁻¹
A12C U65G U69C | 0.000703 ± 0.0002 s⁻¹
A12U G13U A33G A39U A48U | < 1e-05 s⁻¹
C8A U31C G38A A64C | < 1e-05 s⁻¹
G9A A15G C34G U55C C71G | < 1e-05 s⁻¹
G9U G41U G60U C70U | < 1e-05 s⁻¹
C11U A42G C71U | 0.0013 ± 0.0004 s⁻¹
C11U A12G U31G | 0.000738 ± 0.00012 s⁻¹

Variant | self-cleavage kobs at 2500 uM GlcN6P
C8A G29C A42G U45C U46G | < 1e-05 s⁻¹
G7U C16U G29A G60U | < 1e-05 s⁻¹
G7U A36U C68U | < 1e-05 s⁻¹
C10A A53U G60U | 8.13e-05 ± 1.6e-05 s⁻¹
C11U G35U C67A C70A | 5.48e-05 ± 2.6e-05 s⁻¹
C10U A53G C61A C67G | 8.38e-05 ± 4.1e-05 s⁻¹
G7U G9A G29A A39G | < 1e-05 s⁻¹
G9U G29U G35U G38C U45G U49A | < 1e-05 s⁻¹
C11U A52G C71A | 5.37e-05 ± 2.4e-05 s⁻¹
A12C A36C C71A | < 1e-05 s⁻¹
C8A A39G A48U | < 1e-05 s⁻¹
C11U G40A C71U | 0.000785 ± 0.00023 s⁻¹
G9U U31G G66U C71U | < 1e-05 s⁻¹
C11U G29A C71G | 8.63e-05 ± 3e-05 s⁻¹
C11G A15G G59U | 9.06e-05 ± 3.1e-05 s⁻¹
A12G U56A U57C | < 1e-05 s⁻¹
A12G A14C A33U C34G G38U | < 1e-05 s⁻¹
C8U G9U U56A C70G | < 1e-05 s⁻¹

Variants of: B1
Assay: self-cleavage kobs at 10000 uM GlcN6P; higher = faster cleavage; RNA array
Settings: with glucosamine-6-phosphate
Procedure, shortened: as §1

Variant | self-cleavage kobs at 10000 uM GlcN6P
A12U U54A C58U | 6.78e-05 ± 1.3e-05 s⁻¹
C8U A48U G60C | < 1e-05 s⁻¹
C8U A36C G51U C68A | < 1e-05 s⁻¹
A12U G41A C68U | 6.86e-05 ± 1.4e-05 s⁻¹
C8G G63U U65C | < 1e-05 s⁻¹
C11A U30G G43C C68G C71U | 0.000118 ± 3e-05 s⁻¹
C8G A42C U45C C71G | < 1e-05 s⁻¹
G9C C50G U55A U57G C70U | 0.000426 ± 0.00018 s⁻¹
G9U U55C U56G C67U | < 1e-05 s⁻¹
A12G G32C | 3.88e-05 ± 7.6e-06 s⁻¹
C11U A12G U31G | 0.00126 ± 0.0003 s⁻¹
C8A G29C A42G U45C U46G | < 1e-05 s⁻¹
